Values quoted from earlier work as cited in US11931453B2, “Drug delivery device” (NANO PRECISION MEDICAL, INC., priority 2016, dated 2024).

Details: estimated, based on molecular dimensions of similar peptides (literature)

## GLP-1: Glucagon-Like Peptide-1; exenatide is an analog of GLP-1
  Stokes' diameter / hydrodynamic diameter: about 2.6 nm
